Entries after “also recorded” stand apart in the source; their conditions may differ.
What was measured:
[1] = test system: cytokine-treated humanized mice; assay: Liver enzymes (AST, ALT) in cytokine-treated humanized mice; assay type: in vivo, mouse; conditions: 24 hours post-treatment
Procedure: (§1) The blood sampling at seven days post-cytokines treatment was used as the time point (−48 hours) for setting the baseline of the production levels of different cytokines and human cells absolute numbers and percentages. […] Blood samples were collected 2 and 24 hours after the mAb treatment, and all injected animals were euthanized at 24 hours.

[2] = test system: human T, B, NK cells and monocytes in cytokine-treated humanized mice; assay: Immunophenotyping of human cell lineages in peripheral blood (flow cytometry) of cytokine-treated humanized mice; assay type: in vivo, mouse
Procedure: as §1
(§2) Single cell suspensions were prepared from spleen by standard procedures. The following human conjugated antibodies were used for flow cytometry staining. […] Cells were stained with appropriate antibodies in 100 μl PBS containing 0.2% BSA and 0.05% sodium azide for 30 min on ice. Flow cytometry was performed on a LSRII flow cytometer using the FACSDiva software (BD, Franklin Lakes, N.J.), and samples were analyzed using the Flowjo software. For cytokine detection, the concentration of human IL-2, IL-6, IL-8, IL-1β, TNF-α, IFN-γ and mouse IL-2, IL-6, IL-8 were determined in sera using a BD Cytometric Bead Array (CBA) (BD Biosciences, USA). The experiments were conducted according to the manufacturer's recommendation and results were analyzed with the FCAP array software (Soft Flow Hungary, BD Biosciences).

PBMCs = conditions: incubated in aqueous phase; previous study; cited from earlier work
[3] = test system: cytokine-treated humanized mice (NSG engrafted with human HSCs, human IL-15 and Flt-3L plasmids); assay: Serum human cytokine release after mAb injection in IL-15/Flt-3L cytokine-treated humanized mice; assay type: in vivo, mouse; conditions: for change in serum levels of human cytokines: vs saline control or baseline; for serum levels of human cytokines at 24 hours: 24 hours post-injection
Procedure: NSG mice were purchased from the Jackson Laboratories and maintained under specific pathogen-free conditions in the animal facilities at Nanyang Technological University and National University of Singapore. To reconstitute mice, newborn pups (less than 48 hours old) were irradiated with 100 cGy using a Gamma radiation source and injected intracardially with CD34+CD133+ cells ([…] cells/recipient). Human IL-15 and human Fltr-3 ligand were cloned separately into pcDNA3.1(+) vector (Invitrogen, USA) as described previously (Chen Q et al. (2009) Proc Natl Acad Sci, USA, 106:21783-21788). For hydrodynamic gene delivery, 12 week-old humice were injected with 50 μg of each plasmid in a total of 2 ml saline within 7 seconds using a 27 gauge needle. All research with human samples and mice was performed in compliance with the institutional guidelines.
as §1
as §2, with “procedures.” for “procedures. The following human conjugated antibodies were used for flow cytometry staining.”, “IL-2, IL-4,” for “IL-2,”, “TNF-α, and” for “TNF-α,”, “IFN-γ” for “IFN-γ and mouse IL-2, IL-6, IL-8”
NSG mice were purchased from the Jackson Laboratories and maintained under specific pathogen-free conditions in the animal facilities at Nanyang Technological University and National University of Singapore. To reconstitute mice, newborn pups (less than 48 hours old) were irradiated with 100 cGy using a Gamma radiation source and injected intracardially with CD34+CD133+ cells (1×10^5 cells/recipient). Human IL-15 and human Fltr-3 ligand were cloned separately into pcDNA3.1(+) vector (Invitrogen, USA) as described previously. For hydrodynamic gene delivery, 12 week-old humice were injected with 50 μg of each plasmid in a total of 2 ml saline within 7 seconds using a 27 gauge needle. All research with human samples and mice was performed in compliance with the institutional guidelines.
as §2

[4] = test system: cytokine-treated humanized mice; assay: Serum mouse cytokines (mIL-2, mIFN-γ, mIL-6) in cytokine-treated humanized mice; assay type: in vivo; conditions: mice treated with IL-15 and FLT3L or M-CSF plasmid
Procedure: (§3) Single cell suspensions were prepared from spleen by standard procedures. The following human conjugated antibodies were used for flow cytometry staining. CD3, CD4, CD8, CD19, CD28, CD45, CD45RO, CCR7 from Biolegend; CD14 and CD56 from BD Biosciences (BD Biosciences, USA) and mouse CD45.1 from eBioscience. Cells were stained with appropriate antibodies in 100 μl PBS containing 0.2% BSA and 0.05% sodium azide for 30 min on ice. Flow cytometry was performed on a LSRII flow cytometer using the FACSDiva software (BD, Franklin Lakes, N.J.), and samples were analyzed using the Flowjo software. For cytokine detection, the concentration of human IL-2, IL-6, IL-8, IL-1β, TNF-α, IFN-γ and mouse IL-2, IL-6, IL-8 were determined in sera using a BD Cytometric Bead Array (CBA) (BD Biosciences, USA). The experiments were conducted according to the manufacturer's recommendation and results were analyzed with the FCAP array software (Soft Flow Hungary, BD Biosciences).

[5] = test system: humanized mice treated with M-CSF human cytokine plasmid; assay: Serum human cytokine release in humanized mice treated with human M-CSF plasmid; assay type: in vivo, mouse; conditions: 2 hours post-injection
Procedure: as §1
as §3, with “Biosciences). […]” for “Biosciences).”

[6] = 2 and 24 hrs post-injection, 1 mg/kg
[7] = 2 hours post-injection, 1 mg/kg i.v.
[8] = IL-15 and Flt-3L treated mice, 2 hours post-injection, 1 mg/kg i.v.

| Substance | Aspartate aminotransferase (AST) level [1] | B cell numbers in peripheral blood [2, 6] | NK cell numbers in peripheral blood [2, 6] | T cell numbers in peripheral blood [2, 6] | monocyte numbers in peripheral blood [2, 6] | IL-2 response of PBMCs (PBMCs) | IL-6 response of PBMCs (PBMCs) | IL-8 response of PBMCs (PBMCs) | change in serum levels of human cytokines [3, 7] | serum levels of human cytokines at 24 hours ([3]; 1 mg/kg i.v.) | serum levels of human IL-2 ([3]; IL-15 and Flt-3L treated mice, 2 hours post-injection, 1 mg/kg) | serum levels of human IL-6 [3, 8] | serum levels of human IL-8 [3, 8] | mouse IL-6 (mIL-6) in sera [4] | reduction of the CD14+ cells ([2]; 2 hours post-injection) | serum levels of human IL-6 [5] | serum levels of human IL-8 [5] | mouse mIL-2 and mIFN-γ in sera [4] |
| --- | --- | --- | --- | --- | --- | --- | --- | --- | --- | --- | --- | --- | --- | --- | --- | --- | --- | --- |
| Alemtuzumab: humanized anti-CD52 antibody for treating chronic lymphocytic leukemia (Campath, Genzyme) | did not induce a significatively increase | complete depletion | complete depletion | complete depletion | complete depletion; also recorded: only residual monocytes cell remaining at 24 hrs | 14.0 pg/mL | 88 pg/mL | 6050 pg/mL | increase in the serum levels of IL-2, IL-6, IL-8 and IL-1β | most cytokines, except IL-1β, had returned to the baseline level | 0.0316 ng/mL | 0.0192 ng/mL | 0.2241 ng/mL | increase |  |  |  |  |
| OKT3: mouse mAb against human CD3 for suppressing renal allograft rejection (Biolegend) | did not induce a significatively increase |  | transient decrease | complete depletion |  |  |  |  | significant increase in the circulating levels of IL-2, IL-6, IL-8 and IFN-γ | IL-2 expression was diminished 24-hours post injection, the other cytokines remained elevated |  | 0.1318 ng/mL |  | increase; also recorded: slightly increase | 4 fold | 1.5128 ng/mL | 0.7226 ng/mL | not |

Source: patent US20150007357A1, “Use Of Humanized Mice To Determine Toxicity” (Massachusetts Institute Of Technology, priority 2011, published 2015)
